Numbered stars: 1 amine (or outer) side, 2 acyl side, 3 side chain; on linkers, the order of the positions; unused ones are H or OH. Bridge positions count the residues as written; N and C are the ends. Side chains are listed from the residue outwards. Ends that are not written are not given here. * marks the point of attachment. C20 diacid = O=C(O)CCCCCCCCCCCCCCCCCCC(=O)*; γGlu = O=C(O)[C@H](CCC(=O)[*:2])N[*:1]; AEEA = NCCOCCOCC(=O)O

For experiment [1], the target named is T1, human calcitonin receptor (human, UniProt P30988 25-474).
T1 construct: whole, on cells; Assay used cell membranes of the transfected BHK cells; also called hCTR; hCT
T1 sequence (looked up): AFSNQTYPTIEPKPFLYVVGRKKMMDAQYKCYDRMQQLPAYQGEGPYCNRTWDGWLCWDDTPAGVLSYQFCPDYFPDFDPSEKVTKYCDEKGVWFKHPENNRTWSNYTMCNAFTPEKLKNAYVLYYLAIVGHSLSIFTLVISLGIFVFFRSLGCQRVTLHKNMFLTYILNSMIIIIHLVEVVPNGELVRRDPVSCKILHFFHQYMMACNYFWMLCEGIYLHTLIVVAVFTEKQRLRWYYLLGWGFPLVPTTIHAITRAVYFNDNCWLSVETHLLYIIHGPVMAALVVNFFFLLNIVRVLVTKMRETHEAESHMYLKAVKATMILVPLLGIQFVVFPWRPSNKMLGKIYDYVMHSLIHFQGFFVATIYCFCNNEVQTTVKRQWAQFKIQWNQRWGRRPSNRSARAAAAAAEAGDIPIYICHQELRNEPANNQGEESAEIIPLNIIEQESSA
The experiment is described as follows: SPA radioligand competition (125I-calcitonin), membranes of BHK cells with human calcitonin receptor. In outline:
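BHK hCTR membranes 35 ng/μL + SPA beads 0.05 mg/well; buffer 50 mM Hepes pH 7.4, 1 mM CaCl2, 5 mM MgCl₂, 0.1% OA, 0.02% Tween20. 120 min, 25° C., shaking. Scintillation count; IC50 by one-site binding competition.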

In experiment [2] the target is T1, human calcitonin receptor. The experiment is described as follows: ratio IC50 hCTR / IC50 hAmylin-R of the two SPA competition assays; reference: human amylin receptor. Summed up: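 Competition binding by SPA uses membrane preparations (35 ng/μL final) in pH 7.4 Hepes buffer with 1 mM CaCl2 and 5 mM MgCl₂. Incubation lasts 120 min at 25° C, and IC₅₀ comes from one-site fitting.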

B1: N^ε1-[2-[2-[2-[[(4S)-4-carboxy-4-(19-carboxynonadecanoylamino)butanoyl]amino]ethoxy]ethoxy]acetyl]-[Arg17,Pro21,Pro27]-h-amylin (peptide)
peptide: K([AEEA-γGlu-C20 diacid])CNTATCATQRLANFLRHSSPNFGAIPSSTNVGSNTY-NH2
modifications: disulfide 2-7; N-terminus assumed
SMILES: CC[C@H](C)[C@H](NC(=O)[C@H](C)NC(=O)CNC(=O)[C@H](Cc1ccccc1)NC(=O)[C@H](CC(N)=O)NC(=O)[C@@H]1CCCN1C(=O)[C@H](CO)NC(=O)[C@H](CO)NC(=O)[C@H](Cc1c[nH]cn1)NC(=O)[C@H](CCCNC(=N)N)NC(=O)[C@H](CC(C)C)NC(=O)[C@H](Cc1ccccc1)NC(=O)[C@H](CC(N)=O)NC(=O)[C@H](C)NC(=O)[C@H](CC(C)C)NC(=O)[C@H](CCCNC(=N)N)NC(=O)[C@H](CCC(N)=O)NC(=O)[C@@H](NC(=O)[C@H](C)NC(=O)[C@@H]1CSSC[C@H](NC(=O)[C@@H](N)CCCCNC(=O)COCCOCCNC(=O)CC[C@H](NC(=O)CCCCCCCCCCCCCCCCCCC(=O)O)C(=O)O)C(=O)N[C@@H](CC(N)=O)C(=O)N[C@@H]([C@@H](C)O)C(=O)N[C@@H](C)C(=O)N[C@@H]([C@@H](C)O)C(=O)N1)[C@@H](C)O)C(=O)N1CCC[C@H]1C(=O)N[C@@H](CO)C(=O)N[C@@H](CO)C(=O)N[C@H](C(=O)N[C@@H](CC(N)=O)C(=O)N[C@H](C(=O)NCC(=O)N[C@@H](CO)C(=O)N[C@@H](CC(N)=O)C(=O)N[C@H](C(=O)N[C@@H](Cc1ccc(O)cc1)C(N)=O)[C@@H](C)O)C(C)C)[C@@H](C)O
notes: Synthetic analogue; also called compound 41
For the molecule B1, in experiment [1], the IC50 was 21.3 nM. For the same molecule, the “Ratio hCT/hAmylin binding” value in experiment [2] worked out at 49.9.

B2: N^α1-[(4S)-4-carboxy-4-(19-carboxynonadecanoylamino)butanoyl]-[Glu14,Arg17,Pro21,Pro25,Pro28,Pro29]-h-amylin (peptide)
peptide: {C20 diacid-γGlu}-KCNTATCATQRLAEFLRHSSPNFGPILPPTNVGSNTY-NH2
modifications: disulfide 2-7
SMILES: CC[C@H](C)[C@H](NC(=O)[C@@H]1CCCN1C(=O)CNC(=O)[C@H](Cc1ccccc1)NC(=O)[C@H](CC(N)=O)NC(=O)[C@@H]1CCCN1C(=O)[C@H](CO)NC(=O)[C@H](CO)NC(=O)[C@H](Cc1c[nH]cn1)NC(=O)[C@H](CCCNC(=N)N)NC(=O)[C@H](CC(C)C)NC(=O)[C@H](Cc1ccccc1)NC(=O)[C@H](CCC(=O)O)NC(=O)[C@H](C)NC(=O)[C@H](CC(C)C)NC(=O)[C@H](CCCNC(=N)N)NC(=O)[C@H](CCC(N)=O)NC(=O)[C@@H](NC(=O)[C@H](C)NC(=O)[C@@H]1CSSC[C@H](NC(=O)[C@H](CCCCN)NC(=O)CC[C@H](NC(=O)CCCCCCCCCCCCCCCCCCC(=O)O)C(=O)O)C(=O)N[C@@H](CC(N)=O)C(=O)N[C@@H]([C@@H](C)O)C(=O)N[C@@H](C)C(=O)N[C@@H]([C@@H](C)O)C(=O)N1)[C@@H](C)O)C(=O)N[C@@H](CC(C)C)C(=O)N1CCC[C@H]1C(=O)N1CCC[C@H]1C(=O)N[C@H](C(=O)N[C@@H](CC(N)=O)C(=O)N[C@H](C(=O)NCC(=O)N[C@@H](CO)C(=O)N[C@@H](CC(N)=O)C(=O)N[C@H](C(=O)N[C@@H](Cc1ccc(O)cc1)C(N)=O)[C@@H](C)O)C(C)C)[C@@H](C)O
notes: Synthetic analogue; also called compound 6
Turning to B2, the IC50 in experiment [1] was found to be 19.9 nM. In addition, in experiment [2], the “Ratio hCT/hAmylin binding” value was 20.

B3: N^ε1-[(4S)-4-carboxy-4-[[(4S)-4-carboxy-4-(19-carboxynonadecanoylamino)butanoyl]amino]butanoyl]-[Asp14,Arg17,Pro21,Pro26,Asp35]-h-amylin (peptide)
peptide: K([γGlu-γGlu-C20 diacid])CNTATCATQRLADFLRHSSPNFGAPLSSTNVGSDTY-NH2
modifications: disulfide 2-7; N-terminus assumed
SMILES: CC(C)C[C@H](NC(=O)[C@H](CCCNC(=N)N)NC(=O)[C@H](CCC(N)=O)NC(=O)[C@@H](NC(=O)[C@H](C)NC(=O)[C@@H]1CSSC[C@H](NC(=O)[C@@H](N)CCCCNC(=O)CC[C@H](NC(=O)CC[C@H](NC(=O)CCCCCCCCCCCCCCCCCCC(=O)O)C(=O)O)C(=O)O)C(=O)N[C@@H](CC(N)=O)C(=O)N[C@@H]([C@@H](C)O)C(=O)N[C@@H](C)C(=O)N[C@@H]([C@@H](C)O)C(=O)N1)[C@@H](C)O)C(=O)N[C@@H](C)C(=O)N[C@@H](CC(=O)O)C(=O)N[C@@H](Cc1ccccc1)C(=O)N[C@@H](CC(C)C)C(=O)N[C@@H](CCCNC(=N)N)C(=O)N[C@@H](Cc1c[nH]cn1)C(=O)N[C@@H](CO)C(=O)N[C@@H](CO)C(=O)N1CCC[C@H]1C(=O)N[C@@H](CC(N)=O)C(=O)N[C@@H](Cc1ccccc1)C(=O)NCC(=O)N[C@@H](C)C(=O)N1CCC[C@H]1C(=O)N[C@@H](CC(C)C)C(=O)N[C@@H](CO)C(=O)N[C@@H](CO)C(=O)N[C@H](C(=O)N[C@@H](CC(N)=O)C(=O)N[C@H](C(=O)NCC(=O)N[C@@H](CO)C(=O)N[C@@H](CC(=O)O)C(=O)N[C@H](C(=O)N[C@@H](Cc1ccc(O)cc1)C(N)=O)[C@@H](C)O)C(C)C)[C@@H](C)O
notes: Synthetic analogue; also called compound 1
Regarding B3, the IC50 in experiment [1] is 32.5 nM. In experiment [2], the “Ratio hCT/hAmylin binding” value was 27.6.

B4: N^ε1-[(4S)-4-carboxy-4-[[(4S)-4-carboxy-4-(19-carboxynonadecanoylamino)butanoyl]amino]butanoyl]-[Asp14,Arg17,Pro22,Pro26,Asp35]-h-amylin (peptide)
peptide: K([γGlu-γGlu-C20 diacid])CNTATCATQRLADFLRHSSNPFGAPLSSTNVGSDTY-NH2
modifications: disulfide 2-7; N-terminus assumed
SMILES: CC(C)C[C@H](NC(=O)[C@H](CCCNC(=N)N)NC(=O)[C@H](CCC(N)=O)NC(=O)[C@@H](NC(=O)[C@H](C)NC(=O)[C@@H]1CSSC[C@H](NC(=O)[C@@H](N)CCCCNC(=O)CC[C@H](NC(=O)CC[C@H](NC(=O)CCCCCCCCCCCCCCCCCCC(=O)O)C(=O)O)C(=O)O)C(=O)N[C@@H](CC(N)=O)C(=O)N[C@@H]([C@@H](C)O)C(=O)N[C@@H](C)C(=O)N[C@@H]([C@@H](C)O)C(=O)N1)[C@@H](C)O)C(=O)N[C@@H](C)C(=O)N[C@@H](CC(=O)O)C(=O)N[C@@H](Cc1ccccc1)C(=O)N[C@@H](CC(C)C)C(=O)N[C@@H](CCCNC(=N)N)C(=O)N[C@@H](Cc1c[nH]cn1)C(=O)N[C@@H](CO)C(=O)N[C@@H](CO)C(=O)N[C@@H](CC(N)=O)C(=O)N1CCC[C@H]1C(=O)N[C@@H](Cc1ccccc1)C(=O)NCC(=O)N[C@@H](C)C(=O)N1CCC[C@H]1C(=O)N[C@@H](CC(C)C)C(=O)N[C@@H](CO)C(=O)N[C@@H](CO)C(=O)N[C@H](C(=O)N[C@@H](CC(N)=O)C(=O)N[C@H](C(=O)NCC(=O)N[C@@H](CO)C(=O)N[C@@H](CC(=O)O)C(=O)N[C@H](C(=O)N[C@@H](Cc1ccc(O)cc1)C(N)=O)[C@@H](C)O)C(C)C)[C@@H](C)O
notes: Synthetic analogue; also called compound 3
As for B4, the 50% inhibitory concentration (IC50) in experiment [1] amounted to 19.5 nM. For the same molecule, the “Ratio hCT/hAmylin binding” value in experiment [2] worked out at 17.3.

B5: N{Alpha-1}-[(4S)-4-carboxy-4-(19-carboxynonadecanoylamino)butanoyl]-[Glu14,Arg17,Pro21,Pro27,Lys34]-h-amylin (peptide)
peptide: {C20 diacid-γGlu}-KCNTATCATQRLAEFLRHSSPNFGAIPSSTNVGKNTY-NH2
modifications: disulfide 2-7
SMILES: CC[C@H](C)[C@H](NC(=O)[C@H](C)NC(=O)CNC(=O)[C@H](Cc1ccccc1)NC(=O)[C@H](CC(N)=O)NC(=O)[C@@H]1CCCN1C(=O)[C@H](CO)NC(=O)[C@H](CO)NC(=O)[C@H](Cc1c[nH]cn1)NC(=O)[C@H](CCCNC(=N)N)NC(=O)[C@H](CC(C)C)NC(=O)[C@H](Cc1ccccc1)NC(=O)[C@H](CCC(=O)O)NC(=O)[C@H](C)NC(=O)[C@H](CC(C)C)NC(=O)[C@H](CCCNC(=N)N)NC(=O)[C@H](CCC(N)=O)NC(=O)[C@@H](NC(=O)[C@H](C)NC(=O)[C@@H]1CSSC[C@H](NC(=O)[C@H](CCCCN)NC(=O)CC[C@H](NC(=O)CCCCCCCCCCCCCCCCCCC(=O)O)C(=O)O)C(=O)N[C@@H](CC(N)=O)C(=O)N[C@@H]([C@@H](C)O)C(=O)N[C@@H](C)C(=O)N[C@@H]([C@@H](C)O)C(=O)N1)[C@@H](C)O)C(=O)N1CCC[C@H]1C(=O)N[C@@H](CO)C(=O)N[C@@H](CO)C(=O)N[C@H](C(=O)N[C@@H](CC(N)=O)C(=O)N[C@H](C(=O)NCC(=O)N[C@@H](CCCCN)C(=O)N[C@@H](CC(N)=O)C(=O)N[C@H](C(=O)N[C@@H](Cc1ccc(O)cc1)C(N)=O)[C@@H](C)O)C(C)C)[C@@H](C)O
notes: Synthetic analogue; also called compound 36
With B5, the IC50 in experiment [1] stood at 6.3 nM. In experiment [2], the “Ratio hCT/hAmylin binding” value worked out at 15.7.

The values above are taken from patent publication US20140087995A1 (published 2014).
